Experiments:
MtrR [1] = target: T1, MtrR (Neisseria gonorrhoeae, UniProt P39897 1-210); experiment: fluorescence polarization; no bile salt; FP: 20 mM Tris-HCl pH 8.0, 100 mM NaCl, 2.5% glycerol, 1 nM DNA, temperature not stated; EMSA: 20 mM Tris pH 8.0, 200 mM NaCl, 10% glycerol, 1 mM TCEP, 1 ug poly(dI-dC), room temperature, 2% agarose TAE; conditions: protein: recombinant; tags: His6 removed by thrombin; chain copies: 2
MtrR [2] = target: T1, MtrR; experiment: fluorescence polarization; no CAPS; FP: 20 mM Tris-HCl pH 8.0, 100 mM NaCl, 2.5% glycerol, 1 nM DNA, temperature not stated; EMSA: 20 mM Tris pH 8.0, 200 mM NaCl, 10% glycerol, 1 mM TCEP, 1 ug poly(dI-dC), room temperature, 2% agarose TAE; conditions: protein: recombinant; tags: His6 removed by thrombin; chain copies: 2
MtrR(W136L) = MtrR(W136L) (Neisseria gonorrhoeae, UniProt P39897 1-210, W136L); experiment: fluorescence polarization; no bile salt; nM Kd within 5-fold of WT (137, 184 or 187 nM, assignment unclear); FP: 20 mM Tris-HCl pH 8.0, 100 mM NaCl, 2.5% glycerol, 1 nM DNA, temperature not stated; EMSA: 20 mM Tris pH 8.0, 200 mM NaCl, 10% glycerol, 1 mM TCEP, 1 ug poly(dI-dC), room temperature, 2% agarose TAE; conditions: protein: recombinant; tags: N-terminal His6 removed by TEV; chain copies: 2
MtrR(R176A) = MtrR(R176A) (Neisseria gonorrhoeae, UniProt P39897 1-210, R176A); experiment: as above; conditions: protein: recombinant; tags: N-terminal His6 removed by TEV; chain copies: 2
MtrR(R176E) = MtrR(R176E) (Neisseria gonorrhoeae, UniProt P39897 1-210, R176E); experiment: as above; conditions: protein: recombinant; tags: N-terminal His6 removed by TEV; chain copies: 2
MtrR [3] = target: T1, MtrR; experiment: fluorescence polarization; 1 mM taurocholate; FP: 20 mM Tris-HCl pH 8.0, 100 mM NaCl, 2.5% glycerol, 1 nM DNA, temperature not stated; EMSA: 20 mM Tris pH 8.0, 200 mM NaCl, 10% glycerol, 1 mM TCEP, 1 ug poly(dI-dC), room temperature, 2% agarose TAE; conditions: protein: recombinant; tags: His6 removed by thrombin; chain copies: 2
MtrR [4] = target: T1, MtrR; experiment: fluorescence polarization; 1 mM glycocholate; FP: 20 mM Tris-HCl pH 8.0, 100 mM NaCl, 2.5% glycerol, 1 nM DNA, temperature not stated; EMSA: 20 mM Tris pH 8.0, 200 mM NaCl, 10% glycerol, 1 mM TCEP, 1 ug poly(dI-dC), room temperature, 2% agarose TAE; conditions: protein: recombinant; tags: His6 removed by thrombin; chain copies: 2

B1: mtrC (mtrCDE) operator 27-mer, fluorescein (dsDNA)
DNA 1: TTTTTATCCGTGCAATCGTGTATGTAT
DNA 2: ATACATACACGATTGCACGGATAAAAA
MtrR [1]
  Kd: 18 ± 3 nM
MtrR [2]
  Kd: ~3.6 nM
MtrR(W136L)
  binding result: binds
MtrR(R176A)
  binding result: binds
MtrR(R176E)
  binding result: binds
MtrR [3]
  Kd: 20 ± 6 nM
MtrR [4]
  Kd: 21 ± 0.8 nM
